Experimental findings from IntAct's records for PubMed 22289178 are described below.

First the molecules themselves.
B1: Alpha-crystallin B chain (Mus musculus), P23927 (parent)
chain: MDIAIHHPWIRRPFFPFHSPSRLFDQFFGEHLLESDLFSTATSLSPFYLRPPSFLRAPSWIDTGLSEMRLEKDRFSVNLDVKHFSPEELKVKVLGDVIEVHGKHEERQDEHGFISREFHRKYRIPADVDPLTITSSLSSDGVLTVNGPRKQVSGPERTIPITREEKPAVAAAPKK
B2: Gamma-crystallin D (Homo sapiens), P07320 (parent)
chain: MGKITLYEDRGFQGRHYECSSDHPNLQPYLSRCNSARVDSGCWMLYEQPNYSGLQYFLRRGDYADHQQWMGLSDSVRSCRLIPHSGSHRIRLYEREDYRGQMIEFTEDCSCLQDRFRFNEIHSLNVLEGSWVLYELSNYRGRQYLLMPGDYRRYQDWGATNARVGSLRRVIDFS
partner: B1 chain
B3: Gamma-crystallin D (Homo sapiens), P07320 (parent)
chain: B2 chain
partner: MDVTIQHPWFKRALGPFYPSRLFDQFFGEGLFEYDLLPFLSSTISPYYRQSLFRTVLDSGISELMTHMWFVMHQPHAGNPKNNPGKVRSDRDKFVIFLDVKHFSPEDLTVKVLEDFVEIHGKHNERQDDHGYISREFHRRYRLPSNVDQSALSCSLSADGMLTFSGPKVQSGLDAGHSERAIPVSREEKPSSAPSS

In the first assay the parent is B1. The settings on record: with crgd_human CRYGD, P07320.
For S19D, the “effect of a mutation on the interaction” value is listed as “increasing interaction”.
On the same count and under the same terms, as for S59D, the entry is “increasing interaction”; as for S45D, “increasing interaction”.

In the next assay the parent is B2. The settings on record: with cryab_mouse Cryab, P23927.
Regarding V76D, the “effect of a mutation on the interaction” value is given as “increasing interaction”.
Turning to I4F, the “effect of a mutation on the interaction” value is given as “increasing interaction”.

The variants in a further assay derive from B3. The note with it: with cryaa_rat Cryaa.
In the case of V76D, the “effect of a mutation on the interaction” value is recorded as “increasing interaction”.
On the same count and under the same terms, the same measure for I4F: “increasing interaction”.
